Data published in publication PMC10705377.

Molecular target: GluA2-TARPγ2 fusion construct (rat GluA2, GT linker, mouse TARPγ2 truncated following M4) (rat | mouse)
Experiment: cryo-EM structure

GluA2-TARPγ2 fusion construct (rat GluA2, GT linker, mouse TARPγ2 truncated following M4) (receptor)
stoichiometry N: 4
